According to article PMC4475429 (2015):

Target: PKA RIα (Homo sapiens, UniProt P10644)
Experiment: fluorescence polarization competition vs RI-STAD-3

PKA RIα, sequence (P10644 whole entry): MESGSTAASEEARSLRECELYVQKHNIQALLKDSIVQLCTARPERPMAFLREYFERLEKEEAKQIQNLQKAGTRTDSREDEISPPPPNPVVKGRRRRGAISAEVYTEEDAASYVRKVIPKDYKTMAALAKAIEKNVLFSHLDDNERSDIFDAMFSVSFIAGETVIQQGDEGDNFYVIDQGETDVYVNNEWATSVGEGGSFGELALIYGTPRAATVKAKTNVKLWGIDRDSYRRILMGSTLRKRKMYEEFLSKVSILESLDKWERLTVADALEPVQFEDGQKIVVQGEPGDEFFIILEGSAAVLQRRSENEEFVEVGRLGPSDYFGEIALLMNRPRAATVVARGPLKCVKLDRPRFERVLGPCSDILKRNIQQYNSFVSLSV

IC50: 1500 nM
B1: Ht31 AKB (peptide)
chain: WKNVLQGGESTKERFENSNIGTA
